What was measured:
[1] = system: HUVE cells; experiment: Thymidine incorporation (mitogen potentiation), HUVE cells; type: cell-based, human
Procedure: Human umbilical vein endothelial cells were plated essentially as described above for 3T3 cells and exposed to a constant amount of murine Cyr61; controls received no Cyr61. Different plates were then exposed to different levels of bFGF, comprising a series of bFGF concentrations ranging from 0-10 ng/ml. […] At 1 ng/ml bFGF, however, HUVE cells increased their thymidine incorporation in the presence of bFGF to 6×10^2 cpm; in the presence of 1 ng/ml bFGF and murine Cyr61, HUVE cells incorporated 1.3×10^3 cpm. At 10 ng/ml bFGF, cells exposed to bFGF incorporated about 1.8×10^3 cpm thymidine; cells receiving 10 ng/ml bFGF and Cyr61 incorporated approximately 6.1×10^3 cpm.
The capacity of murine Cyr61 to potentiate the mitogenic activity of bFGF was verified by a thymidine incorporation assay involving HUVE cells and various combinations of bFGF, Cyr61, and anti-Cyr61 antibodies. Cells were plated and grown as described above. The following combinations of supplements (final plate concentrations noted parenthetically) were then pre-incubated for 1 hour before addition to individual plates: 1) pre-immune antiserum (3%); 2) bFGF (15 ng/ml) and pre-immune antiserum (3%); 3) pre-immune antiserum (3%) and Cyr61 (4 μg/ml); 4) pre-immune antiserum (3%), Cyr61 (4 μg/ml), and bFGF (15 ng/ml); 5) anti-Cyr61 antiserum (3%); 6) anti-Cyr61 antiserum and bFGF (15 ng/ml); 7) anti-Cyr61 antiserum (3%) and Cyr61 (4 μg/ml); and 8) anti-Cyr61 antiserum (3%), Cyr61 (4 μg/ml), and bFGF (15 ng/ml).
DNA synthesis for HUVE cells and NIH 3T3 fibroblasts was measured by thymidine incorporation as described previously (Kireeva et al., [1996]) with minor modifications. HUVE cells were grown in 24-well plates to a subconfluent state, serum-starved for 24 hours and treated with F12K medium containing 10% fetal bovine serum (FBS), 1 μCi/ml [^3H]-thymidine and 10 ng/ml basic Fibroblast Growth Factor (bFGF) (Gibco-BRL, Inc.) with various concentrations of Cyr61 and Fisp12 as indicated. NIH 3T3 fibroblasts were grown to subconlfluence, serum-starved for 48 hours, and treated with Minimal Essential Medium (MEM) containing 0.5% FBS, 1 μCi/ml [^3H]-thymidine, bFGF and various concentrations of Cyr61 or Fisp12. Thymidine incorporation into the trichloroacetic acid-insoluble fraction was determined after 24 hour incubation. Logarithmically grown mink lung epithelial cells (Mv1lu, CCL64) were treated with various concentrations of TGF-β1 (Gibco-BRL) and 2 μg/ml of Cyr61 or Fisp12 for 18 hours; [^3H]-thymidine was then added to 1 μCi/ml for 2 hours. Thymidine incorporation was determnined as described above.

[2] = system: cornea; experiment: Cornea assay for angiogenic factors; type: in vivo, rat; conditions: for angiogenic effect in cornea assay: rat, in vivo
From the text: Another assay for modulators of angiogenesis is an in vivo assay for assessing the effect of a suspected modulator in the presence of an ECM signaling molecule-related biomaterial, such as Cyr61, on angiogenesis is the Cornea Assay. The Cornea Assay takes advantage of the absence of blood vessels in the cornea, which in the presence of an angiogenic factor, results in the detectable development of capillaries extending from the sclera into the cornea. Friedlander et al., Science 270:1500-1502 (1995). This ingrowth of new blood vessels from the sclera can be microscopically monitored. Further, the visually determined rate of migration can be used to assess changes in the rate of angiogenesis. These cornea assays may be performed using a wide variety of animal models. Preferably, the cornea assays are performed using rats. By way of example, an assay for suspected modulators of Cyr61 using this assay is disclosed. To perform this assay, Cyr61 is initially titrated using primary capillary endothelial cells to determine effective concentrations of Cyr61. Subsequently, Cyr61, in the presence or absence of a suspected modulator, is surgically implanted into the corneas of mammalian laboratory animals, e.g., rabbits or rats. In a preferred embodiment, Cyr61 (or Cyr61 and a suspected modulator) is embedded in a biocompatible matrix, using matrix materials and techniques that are standard in the art. Subsequently, eyes containing implants are visually observed for growth of the readily visible blood vessels within the eye. Control implantations may consist of physiologically balanced buffers embedded in the same type of matrix and implanted into eyes of the same type of laboratory animal receiving the Cyr61-containing implants.
Although rats of various sizes can be used in the cornea assay, a preferred size for the rats is 150-200 g/animal. Anesthesia is induced with Methoxyflurane and is maintained for 40-60 minutes with sodium pentobarbital (50 mg/kg, delivered intraperitoneally). The eyes are gently opened and secured in place by clamping the upper eyelid with a non-traumatic hemostat. Two drops of sterile proparacaine hydrochloride (0.5%) are then placed on each eye as to effect local anesthesia. Using a suitable surgical blade such as a No. 11 Bard Parker blade, an approximately 1.5 mm incision is made approximately 1 mm from the center of the cornea. […] Once the cornea pocket is made, the spatula is removed and the distance between the limbus and base of the pocket is measured to make sure the separation is at least about 1 mm. […]
Following surgery, animals are examined daily for seven days with the aid of a stereomicroscope to check for inflammation and responses. […] During this seven day period, animals are monitored for implant position and corneal exudate. […]

Molecule | enhancement of FGF-induced DNA synthesis ([1]; HUVE-cells, bFGF 10 ng/ml) | angiogenic effect in cornea assay [2] | thymidine incorporation, baseline ([1]; 0-0.1 ng/ml bFGF, presence or absence of Cyr61, 72 hours) | thymidine incorporation with bFGF and Cyr61 ([1]; 1 ng/ml bFGF) | thymidine incorporation with bFGF and Cyr61 ([1]; 10 ng/ml bFGF) | eyes showing blood vessel growth after seven days ([2]; FGF 0.15 μM (six animals), Cyr61 1 μg/ml (seven animals))
Fisp12: Cysteine-rich murine protein, SEQ ID NO:6, mouse ortholog of CTGF (protein, listed as Mus musculus) MLASVAGPISLALVLLALCTRPATGQDCSAQCQCAAEAAPHCPAGVSLVLDGCGCCRVCAKQLGELCTERDPCDPHKGLFCDFGSPANRKIGVCTAKDGAPCVFGGSVYRSGESFQSSCKYQCTCLDGAVGCVPLCSMDVRLPSPDCPFPRRVKLPGKCCKEWVCDEPKDRTAVGPALAAYRLEDTFGPDPTMMRANCLVQTTEWSACSKTCGMGISTRVTNDNTFCRLEKQSRLCMVRPCEADLEENIKKGKKCIRTPKIAKPVKFELSGCTSVKTYRAKFCGVCTDGRCCTPHRTTTLPVEFKCPDGEIMKKNMMFIKTCACHYNCPGDNDIFESLYYRKMYGDMA | enhance DNA synthesis induced by fibroblast growth factor | confirm the effect of angiogenic factors | – | – | – | –
Cyr61: Cysteine-rich ECM signaling protein; murine sequence SEQ ID NO:2, recombinant from Baculovirus-infected Sf9 cells (protein, listed as Mus musculus) MSSSTFRTLAVAVTLLHLTRLALSTCPAACHCPLEAPKCAPGVGLVRDGCGCCKVCAKQLNEDCSKTQPCDHTKGLECNFGASSTALKGICRAQSEGRPCEYNSRIYQNGESFQPNCKHQCTCIDGAVGCIPLCPQELSLPNLGCPNPRLVKVSGQCCEEWVCDEDSIKDSLDDQDDLLGLDASEVELTRNNELIAIGKGSSLKRLPVFGTEPRVLFNPLHAHGQKCIVQTTSWSQCSKSCGTGISTRVTNDNPECRLVKETRICEVRPCGQPVYSSLKKGKKCSKTKKSPEPVRFTYAGCSSVKKYRPKYCGSCVDGRCCTPLQTRTVKMRFRCEDGEMFSKNVMMIQSCKCNYNCPHPNEASFRLYSLFNDIHKFRD | – | confirm the effect of angiogenic factors | approximately 4×10^2 cpm | 1.3×10^3 cpm | approximately 6.1×10^3 cpm | all seven

Source: patent US7521540B2, “CYR61 compositions and methods” (Munin Corporation, priority 1996, dated 2009)
